This passage reports Kd results from publication PMC8179133, “PilB from Streptococcus sanguinis is a bimodular type IV pilin with a direct role in adhesion” (Proceedings of the National Academy of Sciences of the …, 2021).

The target in experiment [1] is fibronectin from human plasma (human). In words: ELISA; putative ligands (5 µg/mL in carbonate-bicarbonate buffer, 50 µL) adsorbed on MaxiSorp plates O/N at 4 °C; blocked 1 h with 3% BSA or 1% gelatin in PBS; serial twofold dilutions of 6His-PilB (40 to 0.625 µg/mL) for 2 h at 37 °C; detected with anti-6His antibody and HRP-linked anti-rabbit IgG, read at 450 nm; Kd by nonlinear regression (One site - Total and nonspecific binding) with BSA or gelatin as nonspecific binding control.

Experiment [2] concerns the target fibrinogen from human plasma (human, UniProt P02671 36-866; P02675 45-491; P02679 27-453, Plasma-purified disulfide-linked (AalphaBbetagamma)2 hexamer, N-glycosylated on the beta and gamma chains, fibrinopeptides A and B retained. Limits are not printed. The alpha chain is taken as the mai). The experiment can be described thus: ELISA; putative ligands (5 µg/mL in carbonate-bicarbonate buffer, 50 µL) adsorbed on MaxiSorp plates O/N at 4 °C; blocked 1 h with 3% BSA or 1% gelatin in PBS; serial twofold dilutions of 6His-PilB (40 to 0.625 µg/mL) for 2 h at 37 °C; detected with anti-6His antibody and HRP-linked anti-rabbit IgG, read at 450 nm; Kd by nonlinear regression (One site - Total and nonspecific binding) with BSA or gelatin as …. To be noted: both partners purified. For orientation: An ELISA detects its analyte on a solid surface through an enzyme-linked reagent.

Chain of fibrinogen from human plasma (P02671 36-866, chain 1 of 3): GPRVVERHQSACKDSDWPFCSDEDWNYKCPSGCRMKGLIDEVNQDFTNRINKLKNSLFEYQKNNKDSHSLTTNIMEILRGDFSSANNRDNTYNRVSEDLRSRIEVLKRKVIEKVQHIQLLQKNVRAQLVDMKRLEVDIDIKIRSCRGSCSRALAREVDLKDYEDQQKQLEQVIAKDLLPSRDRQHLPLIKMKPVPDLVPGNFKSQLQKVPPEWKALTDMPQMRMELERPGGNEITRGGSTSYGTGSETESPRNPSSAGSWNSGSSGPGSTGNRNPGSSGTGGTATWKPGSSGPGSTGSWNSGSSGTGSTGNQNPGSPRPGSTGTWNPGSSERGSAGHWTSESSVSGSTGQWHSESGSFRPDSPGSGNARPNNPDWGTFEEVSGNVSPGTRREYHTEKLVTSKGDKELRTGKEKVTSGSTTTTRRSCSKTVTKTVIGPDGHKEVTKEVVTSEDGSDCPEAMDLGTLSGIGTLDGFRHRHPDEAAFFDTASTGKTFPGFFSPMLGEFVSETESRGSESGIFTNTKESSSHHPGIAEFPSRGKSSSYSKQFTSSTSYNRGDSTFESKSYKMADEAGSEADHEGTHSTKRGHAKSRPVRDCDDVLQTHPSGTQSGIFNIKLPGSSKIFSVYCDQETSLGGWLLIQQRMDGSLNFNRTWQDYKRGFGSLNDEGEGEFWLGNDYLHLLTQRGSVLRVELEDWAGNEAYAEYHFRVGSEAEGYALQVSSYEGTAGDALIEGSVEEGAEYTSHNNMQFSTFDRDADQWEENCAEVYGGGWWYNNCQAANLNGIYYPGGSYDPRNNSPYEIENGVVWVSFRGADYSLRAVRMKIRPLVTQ
Chain of fibrinogen from human plasma (P02675 45-491, chain 2 of 3): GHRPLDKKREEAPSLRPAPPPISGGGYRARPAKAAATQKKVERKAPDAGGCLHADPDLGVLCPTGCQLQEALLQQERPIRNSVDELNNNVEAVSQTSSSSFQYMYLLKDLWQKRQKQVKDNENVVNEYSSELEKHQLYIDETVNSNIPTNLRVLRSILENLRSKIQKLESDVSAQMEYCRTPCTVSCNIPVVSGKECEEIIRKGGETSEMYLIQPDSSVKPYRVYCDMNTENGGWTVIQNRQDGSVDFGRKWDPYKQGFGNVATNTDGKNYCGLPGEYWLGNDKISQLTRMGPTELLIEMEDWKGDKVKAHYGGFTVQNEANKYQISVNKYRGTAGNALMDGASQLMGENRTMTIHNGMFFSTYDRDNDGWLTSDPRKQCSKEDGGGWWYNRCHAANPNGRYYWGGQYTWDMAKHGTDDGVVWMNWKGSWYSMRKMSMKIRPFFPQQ
Chain of fibrinogen from human plasma (P02679 27-453, chain 3 of 3): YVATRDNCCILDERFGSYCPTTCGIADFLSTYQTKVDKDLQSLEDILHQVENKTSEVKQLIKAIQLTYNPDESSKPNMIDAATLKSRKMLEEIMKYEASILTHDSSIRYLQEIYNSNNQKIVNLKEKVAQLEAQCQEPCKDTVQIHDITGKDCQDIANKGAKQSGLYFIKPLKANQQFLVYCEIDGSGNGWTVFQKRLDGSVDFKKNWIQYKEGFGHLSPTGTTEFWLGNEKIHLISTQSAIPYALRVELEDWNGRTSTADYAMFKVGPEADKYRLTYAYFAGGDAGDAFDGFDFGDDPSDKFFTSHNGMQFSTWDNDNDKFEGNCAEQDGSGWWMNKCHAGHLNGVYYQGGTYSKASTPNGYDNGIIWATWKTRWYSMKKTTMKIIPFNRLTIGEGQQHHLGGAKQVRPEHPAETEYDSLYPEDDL

One may read the Kd as the constant that tells how readily two partners part at equilibrium. Read a high Kd as a looser complex. Molecule “6His-PilB_(36-461) (from UniProt A0A0B7GP99 36-461) (domain or fragment)” returned a dissociation constant (Kd) in experiment [1] of 494 nM.
Still for that read-out and setting: for “PilBvWA (from UniProt A0A0B7GP99 192-461) (domain or fragment)” the value was 997 nM.

B1: 6His-PilB_(36-461) (domain or fragment)
chain: SSRELIEREASIQAEMRTSMQYVDRTVGKATSIFILDDSKFKGSKQGLTREWSYIGLSADGKKVMNYVWNKQKQDWDVSELGTKSLYNMKLDLEFKTEGAYQDNRLISYNLTGKYPDTNNKLGIDTAISALNTKQVFSKVAKGKKGIAIAYRTDPIQGQMNIAVSFVFDTSGSMDWDLQGRNVKKTGNESRMDILRKKSVIMIKDLAEIGNISVNLVGFSTSAKYIQQNFSNLDNGTNTIIATITKRENLNPDGVTNPGDGLRYGMISLQSQPAQLKYIVLLTDGIPNAYLVDSRALYAGNRVDLSQGAGRVTFNNPIYDLSPTLGYEYSRLGYDLYSRDSITRENSIAYAGEVSKKFGLGIKRVNVIGFSGVNHEIAYGQSLTDRIGEGGMETKYVSATNEEALQKTFSDIKKQIQQDLWFVSGP
notes: pilin module, short loop and vWA module; 48.4 kDa; synthetic gene codon optimized for E. coli; The 6His tag is noncleavable; also called native PilB; soluble portion of PilB; not shown: 6His, N-terminal, kept
For the molecule B1, the affinity in experiment [2], expressed as Kd, was 865 nM.

B2: PilBvWA (domain or fragment)
chain: QGQMNIAVSFVFDTSGSMDWDLQGRNVKKTGNESRMDILRKKSVIMIKDLAEIGNISVNLVGFSTSAKYIQQNFSNLDNGTNTIIATITKRENLNPDGVTNPGDGLRYGMISLQSQPAQLKYIVLLTDGIPNAYLVDSRALYAGNRVDLSQGAGRVTFNNPIYDLSPTLGYEYSRLGYDLYSRDSITRENSIAYAGEVSKKFGLGIKRVNVIGFSGVNHEIAYGQSLTDRIGEGGMETKYVSATNEEALQKTFSDIKKQIQQDLWFVSGP
notes: PilB of Streptococcus sanguinis 2908, residues 192-461: only the von Willebrand factor A-like (vWA) module; expressed from pET28-pilB192-461; also called vWA module of PilB; PilB 192-461; source: E. coli BL21(DE3), purified; not shown: 6His, N-terminal, kept
In the case of B2, the dissociation constant Kd in experiment [2] was found to be 337 nM.
